Measurements published in paper PMC4324565.

Molecular target: biotinylated gp120 165-182 peptide (HIV-1 (AE.A244))
Experiment: BLI

B1: CH59 unmutated ancestor (CH59-UA) Fab (Fab, V domains shown)
VH: EVQLVESGGGLVQPGRSLRLSCAASGFTFDDYAMHWVRQAPGKGLEWVSGISWNSGSIGYADSVKGRFTISRDNAKNSLYLQMNSLRAEDTALYYCAKDSPRGELPFDYWGQGTLVTVSS
VL: SYELTQPPSVSVSPGQTARITCSGDALPKKYAYWYQQKSGQAPVLVIYEDSKRPSGIPERFSGSSSGTMATLTISGAQVEDEADYYCYSTDSSGNHRVFGGGTKLTVL
With B1 as the binder, how does the Kd read?
The Kd was 500 nM.
